The source of these data is US20240383988A1 (ERASCA, published 2024).

The target in one assay is EGFR fragment D1-D2 (Homo sapiens (Human), UniProt P00533 25-334, limits assumed). The experiment in a line: flow cytometry on transfected HEK293T cells, saturating IgG, signal normalized. (In flow cytometry, cells or beads pass a laser one at a time.)
For assay [1], the target named is T1, human EGFR (human, UniProt P00533 25-645).
T1 construct: Recombinant EGFR as used in SPR, ELISA and BLI; The phage selections used the EGFR ectodomain; also called immobilized EGFR; EGFR ectodomain (ECD)
Put plainly: SPR with purified IgG on EGFR; column head 10^-4 (s-1).

A further assay concerns the target T2, EGFR-D28 (Homo sapiens (Human), UniProt P00533 25-1210).
T2 construct: The deletion Cys240-Cys267 must be applied to the entry
Put plainly: flow cytometry on transfected cells.

A further assay concerns the target T3, EGFRvIII (UniProt P00533 25-1210).
T3 construct: whole, on cells; The deletion must be applied to it
Put plainly: flow cytometry on transfected cells.

A further assay has as its target EGFR fragment D3-D4 (Homo sapiens (Human), UniProt P00533 334-645, limits assumed). Put plainly: flow cytometry on transfected HEK293T cells.
Assay [2] addresses T1, human EGFR. Put plainly: SPR, IgG; optimized variant IgG ER-2a. Background: In SPR one partner is held on a chip, and binding of the other changes the refractive index at the surface.
The target of assay [3] is T1, human EGFR. Put plainly: SPR with purified IgG on EGFR; column head 10^5 (s-1M-1).

B1: IgG ER-3a (antibody, V domains shown)
VH: EVQLVESGGGLVQPGGSLRLSCAASGFDLYSYSMHWVRQAPGKGLEWVASVSPSSGSTYYADSVKGRFTISADTSKNTAYLQMNSLRAEDTAVYYCARHWHVYPSYYWGGFDYWGQGTLVTVSS
VL: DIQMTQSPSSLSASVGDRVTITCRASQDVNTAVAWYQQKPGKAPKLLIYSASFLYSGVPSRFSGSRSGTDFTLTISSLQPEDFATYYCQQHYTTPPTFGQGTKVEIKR
notes: IgG; also called Ab ER-3a
In the case of B1, in the assay with EGFR fragment D1-D2, the binding result is on record as “no binding”.

B2: IgG ER-2a (antibody, V domains shown)
VH: EVQLVESGGGLVQPGGSLRLSCAASGFDVYYAAMHWVRQAPGKGLEWVASISPYYGYTSYADSVKGRFTISADTSKNTAYLQMNSLRAEDTAVYYCARYYHFSWHWSSFGGSYYPGMDYWGQGTLVTVSS
VL: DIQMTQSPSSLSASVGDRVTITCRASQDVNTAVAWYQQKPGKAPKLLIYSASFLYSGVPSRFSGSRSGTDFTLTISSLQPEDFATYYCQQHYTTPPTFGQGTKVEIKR
notes: IgG; also called Ab ER-2a
For B2, the off-rate constant (koff) – broadly, the first-order rate constant of dissociation – with human EGFR [1] is 6.1e-05 s⁻¹. For the same molecule, the binding result with EGFR-D28, in the assay with EGFRvIII and with EGFR fragment D3-D4 was “no binding (tested: saturating IgG concentrations)” in each case. Also, binding in the assay with human EGFR [2] was characterised by a dissociation constant (Kd) of 0.28 nM. Also, in the assay with human EGFR [3], the kon (in general, a measure of how fast the partners come together) was 220000 M⁻¹ s⁻¹.
